# Tests used:
# [1] = target: human CCR9 (isoform not given) (human), P51686
# [2] = target: CCR9 (species and isoform not stated) (UniProt P51686); test: cell-based or functional assay
# [3] = target: human CCR9 (isoform not given) (human), P51686; test: cell-based or functional assay
# [4] = target: CCR9 (species and isoform not stated) (UniProt P51686)
# [5] = target: CCR9 (species and isoform not stated) (UniProt P51686); test: LigandTracer on CCR9-expressing CHO K1 cells, DyLight 650 labelled IgG, bivalent (1:2) fit, ~22 °C
# Sequence of human CCR9 (isoform not given) (human), P51686 (P51686 whole entry, canonical isoform): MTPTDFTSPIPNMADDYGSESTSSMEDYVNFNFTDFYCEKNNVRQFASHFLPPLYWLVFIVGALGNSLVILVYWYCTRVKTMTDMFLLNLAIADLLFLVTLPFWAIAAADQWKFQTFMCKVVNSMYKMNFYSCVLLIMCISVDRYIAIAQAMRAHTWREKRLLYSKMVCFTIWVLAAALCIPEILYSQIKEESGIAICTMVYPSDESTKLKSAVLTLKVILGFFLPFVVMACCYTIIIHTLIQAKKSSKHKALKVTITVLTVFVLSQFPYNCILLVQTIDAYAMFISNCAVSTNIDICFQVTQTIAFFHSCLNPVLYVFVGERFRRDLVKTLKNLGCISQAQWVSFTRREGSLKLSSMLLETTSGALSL
"IC50 (read off the curve), HTRF IP-One, MOLT 4 cells, 50 nM CCL25 [1]",prevention of CCL25 induced CCR9 internalisation (FACS) [2],"EC50, luminescence signal (CPS) against Log M; potency curve as in the NK cell activation reporter assay; the target cell line is not printed on the sheet [4]",koff [5],"Potency, NK cell activation (NK-92 CD16a NFAT luciferase reporter) [3]",Binder,"EC50, killing of PBMC [3]","EC50, killing of human CD4+CCR9+ PBMC [3]"
0.6 nM,2 nM,–,–,–,"AB243LO0326 (antibody, V domains shown, here or on the partner: afucosylated form; in the LigandTracer assay DyLight 650 Maleimide on an engineered cysteine residue in the CH2 region) VH: QVQLVQSGAEVKKPGASVKVSCKASGYTFTSYWMHWVRQAPGQGLEWIGVIYPGNSDTRYNQKFKGRVTITRDTSASTAYMELSSLRSEDTAVYYCTRDYYSNYVYYYAMDYWGQGTTVTVSS VL: DIVMTQTPLSLPVTPGEPASISCRSSQSLVHPNRNTYLHWYLQKPGQSPQLLIYKVSNRFSGVPDRFSGSGSGTDFTLKISRVEAEDVGVYYCSQSTHVPWTFGQGTKLEIK",0.004 nM,0.004 to 0.005 nM
–,–,7.3e-09 M,4.3e-05 s⁻¹,0.8 nM,"humanised AB1020243 afuc (AB1020243-fgl) (antibody, V domains shown, here or on the partner: afucosylated form; in the LigandTracer assay DyLight 650 Maleimide on an engineered cysteine residue in the CH2 region) VH: QVQLVQSGAEVKKPGASVKVSCKASGYTFTSYWMHWVRQAPGQGLEWIGVIYPGNSDTRYNQKFKGRVTITRDTSASTAYMELSSLRSEDTAVYYCTRDYYSNYVYYYAMDYWGQGTTVTVSS VL: DIVMTQTPLSLPVTPGEPASISCRSSQSLVHSNGNTYLHWYLQKPGQSPQLLIYKVSNRFSGVPDRFSGSGSGTDFTLKISRVEAEDVGVYYCSQSTHVPWTFGQGTKLEIK",–,–
0.6 nM,–,–,–,–,"AB243LO0331 (antibody, IgG1, V domains shown, here or on the partner: afucosylated form) VH: QVQLVQSGAEVKKPGASVKVSCKASGYTFTSYWMHWVRQAPGQGLEWIGVIYPGNSDTRYNQKFKGRVTITRDTSASTAYMELSSLRSEDTAVYYCTRDYYSNYVYYYAMDYWGQGTTVTVSS VL: DIVMTQTPLSLPVTPGEPASISCRSSQSLVHSNTNTYLHWYLQKPGQSPQLLIYKVSNRFSGVPDRFSGSGSGTDFTLKISRVEAEDVGVYYCSQSTHVPWTFGQGTKLEIK",–,–

# — patent publication US20250084174A1
